The results in this text go back to patent US20240376174A1.

The target in assay [1] is CpcA, α-subunit of phycocyanin (Synechocystis sp. PCC 6803). As to the kind of experiment: densitometry of Zn-chromophore fluorescence bands of affinity-eluted proteins.
Assay [2] has as its target allophycocyanin (AP) core cylinders of the Synechocystis phycobilisome.
Assay [3] shares this target. The source holds these as a separate data set.
The target is the same in assay [4]. This is another data set of the same source.

For CpcB*S7*6xHis*tev*TTFC fusion protein, the CpcB/CpcA Zn-chromophore fluorescence ratio in the eluted fraction in assay [1] came to 1.4.

As to (α,β*)3CpcG heterohexameric complex, the Chl a fluorescence yield at 700 nm, normalized to [Chl], relative to Δcpc (relative to Δcpc (=1.00)) in assay [2] is 1.74. For the same substance, the rate constant kII of PSII photochemistry, 620 nm actinic light, DCMU-treated intact cells in assay [3] was 1.57 fold of Δcpc.

With “(α,β*TTFC)3CpcG1*IFN heterohexameric complex”, in assay [4], the Chl a fluorescence yield normalized to Chl, relative to Δcpc (relative to Δcpc (=1.0)) was 1.45 and the kII of PSII photochemistry minus the kII of Δcpc, 620 nm actinic light, 12 µM DCMU was 13.4 % of WT.

In assay [2], (α,β*IFN)3CpcG heterohexameric complex gave a Chl a fluorescence yield at 700 nm, normalized to [Chl], relative to Δcpc (relative to Δcpc (=1.00)) of 1.84. The rate constant kII of PSII photochemistry, 620 nm actinic light, DCMU-treated intact cells in assay [3] is 1.46 fold of Δcpc.

For the substance (α,β*TTFC)3CpcG heterohexameric complex, the Chl a fluorescence yield at 700 nm, normalized to [Chl], relative to Δcpc (relative to Δcpc (=1.00)) in assay [2] is 1.66. For the same substance, in assay [3], the rate constant kII of PSII photochemistry, 620 nm actinic light, DCMU-treated intact cells was 1.39 fold of Δcpc.

(α,β)3CpcG1*IFN complex: in assay [4], the Chl a fluorescence yield normalized to Chl, relative to Δcpc (relative to Δcpc (=1.0)) is 1.55 and the kII of PSII photochemistry minus the kII of Δcpc, 620 nm actinic light, 12 µM DCMU is 22.4 % of WT.
